# Source: article PMC3813506 (2013)
# T1: Nupr1 (Homo sapiens, UniProt O60356)
# T1 chain: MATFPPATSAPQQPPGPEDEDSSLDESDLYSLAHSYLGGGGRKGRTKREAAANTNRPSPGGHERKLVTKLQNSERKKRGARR
# T2: TRX-MSL1 (Homo sapiens)
# T2 sequence: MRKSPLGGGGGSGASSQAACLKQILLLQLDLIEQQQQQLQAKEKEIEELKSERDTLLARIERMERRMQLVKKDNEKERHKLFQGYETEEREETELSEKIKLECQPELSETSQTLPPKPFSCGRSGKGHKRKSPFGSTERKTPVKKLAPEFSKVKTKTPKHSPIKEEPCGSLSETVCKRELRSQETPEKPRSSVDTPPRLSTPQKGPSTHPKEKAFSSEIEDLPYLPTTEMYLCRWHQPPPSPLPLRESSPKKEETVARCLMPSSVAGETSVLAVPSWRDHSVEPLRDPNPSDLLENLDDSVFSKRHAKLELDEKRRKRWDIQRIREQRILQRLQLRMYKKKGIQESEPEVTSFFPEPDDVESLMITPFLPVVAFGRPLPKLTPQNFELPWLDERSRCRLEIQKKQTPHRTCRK
# B1: MSL1 (protein)
# chain: MTMRSAVFKAAAAPAGGNPEQRLDYERAAALGGPEDEPGAAEAHFLPRHRKLKEPGPPLASSQGGSPAPSPAGCGGKGRGLLLPAGAAPGQQEESWGGSVPLPCPPPATKQAGIGGEPAAAGAGCSPRPKYQAVLPIQTGSLVAAAKEPTPWAGDKGGAASPAATASDPAGPPPLPLPGPPPLAPTATAGTLAASEGRWKSMRKSPLGGGGGSGASSQAACLKQILLLQLDLIEQQQQQLQAKEKEIEELKSERDTLLARIERMERRMQLVKKDNEKERHKLFQGYETEEREETELSEKIKLECQPELSETSQTLPPKPFSCGRSGKGHKRKSPFGSTERKTPVKKLAPEFSKVKTKTPKHSPIKEEPCGSLSETVCKRELRSQETPEKPRSSVDTPPRLSTPQKGPSTHPKEKAFSSEIEDLPYLSTTEMYLCRWHQPPPSPLPLRESSPKKEETVARCLMPSSVAGETSVLAVPSWRDHSVEPLRDPNPSDLLENLDDSVFSKRHAKLELDEKRRKRWDIQRIREQRILQRLQLRMYKKKGIQESEPEVTSFFPEPDDVESLMITPFLPVVAFGRPLPKLTPQNFELPWLDERSRCRLEIQKKQTPHRTCRK
# modifications: Nupr1 preformed complex with etoposide-damaged DNA
# Key:
# [1] = target: Nupr1-Flag (pcDNA3-Nupr1-Flag) (UniProt O60356); experiment: proximity ligation; MiaPaCa-2 cells transfected with Nupr1-Flag and MSL1-V5, treated with cisplatin (5 µM or 10 µM) for 24 h; DuoLink kit; also combined with γ-H2AX staining
# [2] = target: T1, Nupr1; experiment: ITC; 40 µM MSL1 injected into 4 µM Nupr1 in the cell; 25°C, 10 mM acetate buffer pH 4.5; single-site binding model; heat of dilution of MSL1 used as reference
# [3] = tested on: Nupr1; experiment: ITC; conditions: apparent; dH -23 kcal/mol; DNA MW assumed (10^4 kDa); chemically damaged with etoposide; ITC: 10 mM acetate pH 4.5, 25 C, 0.03 mg/ml damaged DNA; CD/fluorescence: 50 mM acetate pH 4.5, 25 C, 20 uM protein; agarose gel: 2%, 1x TAE; NMR 25 C
# [4] = tested on: T2, TRX-MSL1 (Homo sapiens); experiment: ITC; conditions: apparent; dH 29 kcal/mol; DNA MW assumed (10^4 kDa); chemically damaged with etoposide; ITC: 10 mM acetate pH 4.5, 25 C, 0.03 mg/ml damaged DNA; CD/fluorescence: 50 mM acetate pH 4.5, 25 C, 20 uM protein; agarose gel: 2%, 1x TAE; NMR 25 C
# [5] = tested on: TRX-MSL1;Nupr1 (Homo sapiens;); experiment: ITC; conditions: MSL1 titrated into preformed Nupr1 + damaged-DNA complex; dH 28 kcal/mol; chemically damaged with etoposide; ITC: 10 mM acetate pH 4.5, 25 C, 0.03 mg/ml damaged DNA; CD/fluorescence: 50 mM acetate pH 4.5, 25 C, 20 uM protein; agarose gel: 2%, 1x TAE; NMR 25 C
# [6] = target: T1, Nupr1; experiment: ITC
molecule,measurement,setting,value
MSL1-V5 (pcDNA4-MSL1-V5) (from UniProt Q68DK7 1-614) (natural protein),"PLA dots (PLA combined with γ-H2AX staining, cisplatin)",[1],53 PLA dots
same,PLA dots per nucleus (5 µM cisplatin) (dots PLA per nucleus),[1],32
same,PLA dots per nucleus (10 µM cisplatin) (dots PLA per nucleus),[1],57
"TRX-tagged MSL1 (His-tagged TRX-MSL1 fusion protein, human MSL1, 413-residue-long differentially spliced isoform) (natural protein)",Kd,[2],2800 nM
same,dH,[2],39 kcal/mol
etoposide-damaged DNA,Kd,[3],400 nM
same,Kd,[4],1200 nM
same,Kd,[5],800 nM
B1,Kd,[6],800 nM
